In publication PMC5325477, “The single nucleotide variant rs12722489 determines differential estrogen receptor binding and enhancer properties of an IL2RA intronic region”:

Experiments:
[1] = system: ERα (endogenous, MT-2 nuclear extract) (human (MT-2 cells)); assay: pull-down (anti-ERα, qPCR); conditions: normalized to 176 bp internal control DNA; EMSA: 10% glycerol, 80 mM KCl, 25 mM NaCl, 15 mM Tris pH 8.0, 0.18 mM EDTA, 1 mM MgCl2, 1.1 mM DTT, 50 uM Na3VO4, 33.3 ug/ml BSA, 150 ug/ml poly-dIdC, 20 min …
[2] = target: ERα (purified recombinant) (human, UniProt P03372 1-595); assay: EMSA; below detection limit; EMSA: 10% glycerol, 80 mM KCl, 25 mM NaCl, 15 mM Tris pH 8.0, 0.18 mM EDTA, 1 mM MgCl2, 1.1 mM DTT, 50 uM Na3VO4, 33.3 ug/ml BSA, 150 ug/ml poly-dIdC, 20 min room temperature, gel at 4 C; pull-down: 60 mM KCl, 12 mM HEPES pH 8.0, 4 mM Tris pH 8.0, 0.5 mM EDTA, 5% glycerol, 1 mM DTT, salmon sperm DNA, on ice, then RIPA buffer, 4 C overnight; conditions: protein: recombinant; chain copies: 2; label: 32P (dATP, Klenow fill-in); blunt after Klenow fill-in (annealed oligos of 26 and 24 nt)
Sequence of ERα (purified recombinant) (P03372 whole entry): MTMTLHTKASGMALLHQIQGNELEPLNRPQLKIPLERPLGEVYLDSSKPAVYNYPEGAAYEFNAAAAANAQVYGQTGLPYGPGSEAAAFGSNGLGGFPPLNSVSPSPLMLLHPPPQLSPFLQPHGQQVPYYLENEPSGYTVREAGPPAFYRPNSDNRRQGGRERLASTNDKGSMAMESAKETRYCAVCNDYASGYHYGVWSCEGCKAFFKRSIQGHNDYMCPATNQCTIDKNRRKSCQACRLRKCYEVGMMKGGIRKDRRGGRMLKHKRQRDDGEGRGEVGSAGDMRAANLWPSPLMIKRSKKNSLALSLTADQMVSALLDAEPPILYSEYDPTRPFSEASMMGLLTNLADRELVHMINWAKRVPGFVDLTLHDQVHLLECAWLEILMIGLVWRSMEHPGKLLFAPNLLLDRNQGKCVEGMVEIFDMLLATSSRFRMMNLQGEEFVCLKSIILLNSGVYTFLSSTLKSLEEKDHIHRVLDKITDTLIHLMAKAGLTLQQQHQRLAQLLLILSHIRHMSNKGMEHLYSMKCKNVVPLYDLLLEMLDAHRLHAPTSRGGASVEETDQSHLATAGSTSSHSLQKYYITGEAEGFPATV

IL2RA rs12722489 G, 189 bp PCR
binding signal (fold vs A variant) [1]: 2

B1: IL2RA rs12722489 A, 32 bp (dsDNA)
DNA 1: ACTTATCCAAGGATCTGAGTGGTCTTGGAGGG
DNA 2: CCCTCCAAGACCACTCAGATCCTTGGATAAGT
binding result [2]: no binding
